{"source": "FireProtDB (doi:10.1021/bi00177a023)", "proteins": {"B1": {"name": "Guanyl-specific ribonuclease T1 wild type, P00651 (protein)", "chain": "MMYSKLLTLTTLLLPTALALPSLVERACDYTCGSNCYSSSDVSTAQAAGYQLHEDGETVGSNSYPHKYNNYEGFDFSVSSPYYEWPILSSGDVYSGGSPGADRVVFNENNQLAGVITHTGASGNNFVECT"}}, "conditions": "Aspergillus oryzae (strain ATCC 42149 / RIB 40), Thermal, DSC, NaCl 80 mM, reversible: yes, whole UniProt chain shown", "key": {"[1]": {"conditions": "pH 6, Sodium cacodylate-HCl 10 mM"}, "[2]": {"conditions": "pH 6.5, Sodium cacodylate-HCl 10 mM"}, "[3]": {"conditions": "pH 7, Sodium cacodylate-HCl 10 mM"}, "[4]": {"conditions": "pH 8.6, Sodium borate-HCl 10 mM"}}, "data": [{"protein": "B1", "values": [{"measurement": "Tm", "setting": "pH 5, Sodium acetate 10 mM", "value": 58.8, "unit": "°C"}, {"measurement": "heat capacity change of unfolding", "setting": "pH 5, Sodium acetate 10 mM", "value": 0.89, "unit": "kcal/mol/K"}, {"measurement": "unfolding enthalpy (calorimetric)", "setting": "pH 5, Sodium acetate 10 mM", "value": 112, "unit": "kcal/mol"}, {"measurement": "unfolding enthalpy (van 't Hoff)", "setting": "pH 5, Sodium acetate 10 mM", "value": 115, "unit": "kcal/mol"}, {"measurement": "Tm", "setting": "[1]", "value": 54.1, "unit": "°C"}, {"measurement": "heat capacity change of unfolding", "setting": "[1]", "value": 1.28, "unit": "kcal/mol/K"}, {"measurement": "unfolding enthalpy (calorimetric)", "setting": "[1]", "value": 111, "unit": "kcal/mol"}, {"measurement": "unfolding enthalpy (van 't Hoff)", "setting": "[1]", "value": 110, "unit": "kcal/mol"}, {"measurement": "Tm", "setting": "[2]", "value": 50.9, "unit": "°C"}, {"measurement": "heat capacity change of unfolding", "setting": "[2]", "value": 1.23, "unit": "kcal/mol/K"}, {"measurement": "unfolding enthalpy (calorimetric)", "setting": "[2]", "value": 106, "unit": "kcal/mol"}, {"measurement": "unfolding enthalpy (van 't Hoff)", "setting": "[2]", "value": 112, "unit": "kcal/mol"}, {"measurement": "Tm", "setting": "[3]", "value": 48.8, "unit": "°C"}, {"measurement": "heat capacity change of unfolding", "setting": "[3]", "value": 1.21, "unit": "kcal/mol/K"}, {"measurement": "unfolding enthalpy (calorimetric)", "setting": "[3]", "value": 108, "unit": "kcal/mol"}, {"measurement": "unfolding enthalpy (van 't Hoff)", "setting": "[3]", "value": 108, "unit": "kcal/mol"}, {"measurement": "Tm", "setting": "[4]", "value": 43.4, "unit": "°C"}, {"measurement": "heat capacity change of unfolding", "setting": "[4]", "value": 1.2, "unit": "kcal/mol/K"}, {"measurement": "unfolding enthalpy (calorimetric)", "setting": "[4]", "value": 94.7, "unit": "kcal/mol"}, {"measurement": "unfolding enthalpy (van 't Hoff)", "setting": "[4]", "value": 109, "unit": "kcal/mol"}, {"measurement": "Tm", "setting": "pH 9.7, glycine-NaOH 10 mM", "value": 40.7, "unit": "°C"}, {"measurement": "heat capacity change of unfolding", "setting": "pH 9.7, glycine-NaOH 10 mM", "value": 1.22, "unit": "kcal/mol/K"}, {"measurement": "unfolding enthalpy (calorimetric)", "setting": "pH 9.7, glycine-NaOH 10 mM", "value": 79.7, "unit": "kcal/mol"}, {"measurement": "unfolding enthalpy (van 't Hoff)", "setting": "pH 9.7, glycine-NaOH 10 mM", "value": 102, "unit": "kcal/mol"}]}]}
